Assay results as given in patent publication US12295987B2, “Method of using a GIP/GLP1 co-agonist for diabetes” (Eli Lilly and Company, priority 2018, dated 2025).
Numbered stars: 1 amine (or outer) side, 2 acyl side, 3 side chain; on linkers, the order of the positions; unused ones are H or OH. Square brackets hold non-standard residues; d marks the D form. Side chains are listed from the residue outwards. Ends that are not written are not given here. * marks the point of attachment. C20 diacid = O=C(O)CCCCCCCCCCCCCCCCCCC(=O)*; γGlu = O=C(O)[C@H](CCC(=O)[*:2])N[*:1]; AEEA = NCCOCCOCC(=O)O; Aib = CC(C)(N)C(=O)O

Target: T1, human gastric inhibitory peptide receptor (hGIPR) (Homo sapiens, UniProt P48546)
T1 construct: expressed in transfected cells; host or cells: HEK293
T1 sequence (P48546 22-466): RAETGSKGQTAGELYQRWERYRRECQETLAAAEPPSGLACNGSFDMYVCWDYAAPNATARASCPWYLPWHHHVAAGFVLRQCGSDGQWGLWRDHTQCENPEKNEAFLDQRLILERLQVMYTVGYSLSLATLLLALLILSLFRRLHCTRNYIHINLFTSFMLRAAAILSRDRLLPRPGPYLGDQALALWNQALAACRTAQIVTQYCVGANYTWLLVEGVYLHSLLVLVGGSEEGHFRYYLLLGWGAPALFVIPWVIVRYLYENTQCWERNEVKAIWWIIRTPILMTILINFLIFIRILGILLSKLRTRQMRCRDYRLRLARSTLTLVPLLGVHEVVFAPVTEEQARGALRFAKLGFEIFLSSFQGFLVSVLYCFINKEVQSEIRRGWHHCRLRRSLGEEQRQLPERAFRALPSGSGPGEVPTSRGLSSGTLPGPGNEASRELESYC
Test: cAMP pharmacological functional assay in presence of 0.1% casein, hGIPR
Assay type: cell-based
Conditions: ratio of hGIPR to hGLP1R cAMP EC50 ratios

Substance | [hGIPR/hGLP1R] EC50 Ratio
Y-Aib-EGTFTSDYSILLDKIAQ-Aib-AFIEYLIK((2-[2-(2-Amino-ethoxy)-ethoxy]-acetyl)2-(γGlu)-CO—(CH2)18—CO2H)GG-NH2 (Y[Aib]EGTFTSDYSILLDKIAQ[Aib]AFIEYLIK([AEEA-AEEA-γGlu-C20 diacid])GG-NH2; N-terminus assumed; SMILES CC[C@H](C)[C@H](NC(=O)[C@H](CCCCN)NC(=O)[C@H](CC(=O)O)NC(=O)[C@H](CC(C)C)NC(=O)[C@H](CC(C)C)NC(=O)[C@@H](NC(=O)[C@H](CO)NC(=O)[C@H](Cc1ccc(O)cc1)NC(=O)[C@H](CC(=O)O)NC(=O)[C@H](CO)NC(=O)[C@@H](NC(=O)[C@H](Cc1ccccc1)NC(=O)[C@@H](NC(=O)CNC(=O)[C@H](CCC(=O)O)NC(=O)C(C)(C)NC(=O)[C@@H](N)Cc1ccc(O)cc1)[C@@H](C)O)[C@@H](C)O)[C@@H](C)CC)C(=O)N[C@@H](C)C(=O)N[C@@H](CCC(N)=O)C(=O)NC(C)(C)C(=O)N[C@@H](C)C(=O)N[C@@H](Cc1ccccc1)C(=O)N[C@H](C(=O)N[C@@H](CCC(=O)O)C(=O)N[C@@H](Cc1ccc(O)cc1)C(=O)N[C@@H](CC(C)C)C(=O)N[C@H](C(=O)N[C@@H](CCCCNC(=O)COCCOCCNC(=O)COCCOCCNC(=O)CC[C@H](NC(=O)CCCCCCCCCCCCCCCCCCC(=O)O)C(=O)O)C(=O)NCC(=O)NCC(N)=O)[C@@H](C)CC)[C@@H](C)CC) [Peptide 73] | 7.73
Y-Aib-EGTFTSDYSILLDKIAQ-Aib-AFIEYLIK((2-[2-(2-Amino-ethoxy)-ethoxy]-acetyl)2-(γGlu)-CO—(CH2)18—CO2H)GGPSSGAPPPS-NH2 (Y[Aib]EGTFTSDYSILLDKIAQ[Aib]AFIEYLIK([AEEA-AEEA-γGlu-C20 diacid])GGPSSGAPPPS-NH2; N-terminus assumed; SMILES CC[C@H](C)[C@H](NC(=O)[C@H](CCCCN)NC(=O)[C@H](CC(=O)O)NC(=O)[C@H](CC(C)C)NC(=O)[C@H](CC(C)C)NC(=O)[C@@H](NC(=O)[C@H](CO)NC(=O)[C@H](Cc1ccc(O)cc1)NC(=O)[C@H](CC(=O)O)NC(=O)[C@H](CO)NC(=O)[C@@H](NC(=O)[C@H](Cc1ccccc1)NC(=O)[C@@H](NC(=O)CNC(=O)[C@H](CCC(=O)O)NC(=O)C(C)(C)NC(=O)[C@@H](N)Cc1ccc(O)cc1)[C@@H](C)O)[C@@H](C)O)[C@@H](C)CC)C(=O)N[C@@H](C)C(=O)N[C@@H](CCC(N)=O)C(=O)NC(C)(C)C(=O)N[C@@H](C)C(=O)N[C@@H](Cc1ccccc1)C(=O)N[C@H](C(=O)N[C@@H](CCC(=O)O)C(=O)N[C@@H](Cc1ccc(O)cc1)C(=O)N[C@@H](CC(C)C)C(=O)N[C@H](C(=O)N[C@@H](CCCCNC(=O)COCCOCCNC(=O)COCCOCCNC(=O)CC[C@H](NC(=O)CCCCCCCCCCCCCCCCCCC(=O)O)C(=O)O)C(=O)NCC(=O)NCC(=O)N1CCC[C@H]1C(=O)N[C@@H](CO)C(=O)N[C@@H](CO)C(=O)NCC(=O)N[C@@H](C)C(=O)N1CCC[C@H]1C(=O)N1CCC[C@H]1C(=O)N1CCC[C@H]1C(=O)N[C@@H](CO)C(N)=O)[C@@H](C)CC)[C@@H](C)CC) [Peptide 37] | 9.98
Y-Aib-EGTFTSDYSILLDKIAQ-Aib-AFIK((2-[2-(2-Amino-ethoxy)-ethoxy]-acetyl)2-(γGlu)-CO—(CH2)18—CO2H)YLIEGGPSSGAPPPS-NH2 (Y[Aib]EGTFTSDYSILLDKIAQ[Aib]AFIK([AEEA-AEEA-γGlu-C20 diacid])YLIEGGPSSGAPPPS-NH2; N-terminus assumed; SMILES CC[C@H](C)[C@H](NC(=O)[C@H](CCCCN)NC(=O)[C@H](CC(=O)O)NC(=O)[C@H](CC(C)C)NC(=O)[C@H](CC(C)C)NC(=O)[C@@H](NC(=O)[C@H](CO)NC(=O)[C@H](Cc1ccc(O)cc1)NC(=O)[C@H](CC(=O)O)NC(=O)[C@H](CO)NC(=O)[C@@H](NC(=O)[C@H](Cc1ccccc1)NC(=O)[C@@H](NC(=O)CNC(=O)[C@H](CCC(=O)O)NC(=O)C(C)(C)NC(=O)[C@@H](N)Cc1ccc(O)cc1)[C@@H](C)O)[C@@H](C)O)[C@@H](C)CC)C(=O)N[C@@H](C)C(=O)N[C@@H](CCC(N)=O)C(=O)NC(C)(C)C(=O)N[C@@H](C)C(=O)N[C@@H](Cc1ccccc1)C(=O)N[C@H](C(=O)N[C@@H](CCCCNC(=O)COCCOCCNC(=O)COCCOCCNC(=O)CC[C@H](NC(=O)CCCCCCCCCCCCCCCCCCC(=O)O)C(=O)O)C(=O)N[C@@H](Cc1ccc(O)cc1)C(=O)N[C@@H](CC(C)C)C(=O)N[C@H](C(=O)N[C@@H](CCC(=O)O)C(=O)NCC(=O)NCC(=O)N1CCC[C@H]1C(=O)N[C@@H](CO)C(=O)N[C@@H](CO)C(=O)NCC(=O)N[C@@H](C)C(=O)N1CCC[C@H]1C(=O)N1CCC[C@H]1C(=O)N1CCC[C@H]1C(=O)N[C@@H](CO)C(N)=O)[C@@H](C)CC)[C@@H](C)CC) [Peptide 34] | 10.03
Y-Aib-EGTFTSDYSILLDKIAQ-Aib-AFK((2-[2-(2-Amino-ethoxy)-ethoxy]-acetyl)2-(γGlu)-CO—(CH2)18—CO2H)EYLIEGGPSSGAPPPS-NH2 (Y[Aib]EGTFTSDYSILLDKIAQ[Aib]AFK([AEEA-AEEA-γGlu-C20 diacid])EYLIEGGPSSGAPPPS-NH2) [Peptide 33] | 8.67
Y-Aib-EGTFTSDYSILLDKIAQ-Aib-K((2-[2-(2-Amino-ethoxy)-ethoxy]-acetyl)2-(γGlu)-CO—(CH2)18—CO2H)FIEYLIEGGPSSGAPPPS-NH2 (Y[Aib]EGTFTSDYSILLDKIAQ[Aib]K([AEEA-AEEA-γGlu-C20 diacid])FIEYLIEGGPSSGAPPPS-NH2; N-terminus assumed; SMILES CC[C@H](C)[C@H](NC(=O)[C@H](CCCCN)NC(=O)[C@H](CC(=O)O)NC(=O)[C@H](CC(C)C)NC(=O)[C@H](CC(C)C)NC(=O)[C@@H](NC(=O)[C@H](CO)NC(=O)[C@H](Cc1ccc(O)cc1)NC(=O)[C@H](CC(=O)O)NC(=O)[C@H](CO)NC(=O)[C@@H](NC(=O)[C@H](Cc1ccccc1)NC(=O)[C@@H](NC(=O)CNC(=O)[C@H](CCC(=O)O)NC(=O)C(C)(C)NC(=O)[C@@H](N)Cc1ccc(O)cc1)[C@@H](C)O)[C@@H](C)O)[C@@H](C)CC)C(=O)N[C@@H](C)C(=O)N[C@@H](CCC(N)=O)C(=O)NC(C)(C)C(=O)N[C@@H](CCCCNC(=O)COCCOCCNC(=O)COCCOCCNC(=O)CC[C@H](NC(=O)CCCCCCCCCCCCCCCCCCC(=O)O)C(=O)O)C(=O)N[C@@H](Cc1ccccc1)C(=O)N[C@H](C(=O)N[C@@H](CCC(=O)O)C(=O)N[C@@H](Cc1ccc(O)cc1)C(=O)N[C@@H](CC(C)C)C(=O)N[C@H](C(=O)N[C@@H](CCC(=O)O)C(=O)NCC(=O)NCC(=O)N1CCC[C@H]1C(=O)N[C@@H](CO)C(=O)N[C@@H](CO)C(=O)NCC(=O)N[C@@H](C)C(=O)N1CCC[C@H]1C(=O)N1CCC[C@H]1C(=O)N1CCC[C@H]1C(=O)N[C@@H](CO)C(N)=O)[C@@H](C)CC)[C@@H](C)CC) [Peptide 32] | 6.18
Y-Aib-EGTFTSDYSILLDKK((2-[2-(2-Amino-ethoxy)-ethoxy]-acetyl)2-(γGlu)-CO—(CH2)18—CO2H)AQ-Aib-AFI-(D-Glu)-YLIEGGPSSGAPPPS-NH2 (YXEGTFTSDYSILLDKKAQXAFIXYLIEGGPSSGAPPPS; Aib, D-Glu, lipidated Lys, C-terminal amide; (2)..(2) Xaa at position 2 is Aib; MOD_RES (17)..(17) Lys at position 17 is chemically modified by conjugation of the epsilon-amino group of the Lys side chain with (2-[2-(2-amino-ethoxy)-ethoxy]-acetyl)2-(gamma-Glu)-CO-(CH2)18- CO2H; (20)..(20) Xaa at position 20 is Aib; (24)..(24) Xaa at position 24 is D-Glu; MOD_RES (39)..(39) Ser at position 39 is amidated) [Peptide 84] | 9.19
